Test [1] concerns the target full-length human G-CSF receptor (human) (UniProt Q99062). The test is described as follows: cell-based or functional assay.
The target in test [2] is endogenous IL-3 receptors of BaF3 cells (UniProt P26952). The test is described as follows: cell-based or functional assay.
UniProt P26952, sequence (P26952 17-396): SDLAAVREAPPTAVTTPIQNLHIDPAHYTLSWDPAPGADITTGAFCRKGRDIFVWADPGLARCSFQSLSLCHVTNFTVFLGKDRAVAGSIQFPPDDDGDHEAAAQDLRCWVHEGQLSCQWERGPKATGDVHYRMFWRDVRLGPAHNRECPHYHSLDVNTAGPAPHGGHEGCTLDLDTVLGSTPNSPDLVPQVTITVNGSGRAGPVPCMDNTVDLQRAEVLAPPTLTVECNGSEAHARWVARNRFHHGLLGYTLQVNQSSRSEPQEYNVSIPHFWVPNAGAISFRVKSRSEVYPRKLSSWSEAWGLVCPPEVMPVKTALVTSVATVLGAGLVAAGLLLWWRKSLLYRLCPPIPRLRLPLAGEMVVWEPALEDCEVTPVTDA

UniProt Q99062, sequence (Q99062 25-836): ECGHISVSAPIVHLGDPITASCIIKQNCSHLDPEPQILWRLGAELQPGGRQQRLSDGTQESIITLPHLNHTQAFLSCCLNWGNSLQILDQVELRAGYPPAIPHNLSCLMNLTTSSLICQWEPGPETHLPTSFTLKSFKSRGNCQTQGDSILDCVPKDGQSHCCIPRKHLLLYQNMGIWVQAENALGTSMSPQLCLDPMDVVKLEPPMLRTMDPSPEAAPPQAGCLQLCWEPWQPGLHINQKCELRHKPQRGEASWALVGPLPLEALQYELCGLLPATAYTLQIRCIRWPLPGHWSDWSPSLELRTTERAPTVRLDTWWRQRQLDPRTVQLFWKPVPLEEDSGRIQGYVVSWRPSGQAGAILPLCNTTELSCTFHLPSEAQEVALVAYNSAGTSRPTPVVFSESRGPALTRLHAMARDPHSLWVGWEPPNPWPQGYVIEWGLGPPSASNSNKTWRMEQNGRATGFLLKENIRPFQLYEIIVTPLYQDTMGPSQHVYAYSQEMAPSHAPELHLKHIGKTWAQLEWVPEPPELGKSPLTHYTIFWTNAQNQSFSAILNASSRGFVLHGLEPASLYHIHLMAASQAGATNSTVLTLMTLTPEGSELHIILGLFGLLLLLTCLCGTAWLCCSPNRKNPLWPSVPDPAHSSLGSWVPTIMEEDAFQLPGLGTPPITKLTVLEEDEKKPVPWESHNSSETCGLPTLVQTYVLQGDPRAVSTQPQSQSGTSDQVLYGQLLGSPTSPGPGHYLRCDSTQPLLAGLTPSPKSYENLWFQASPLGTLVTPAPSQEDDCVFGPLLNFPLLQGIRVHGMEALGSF

As for G-CSF (ligand), in test [1], the luminescence output-fold stimulation over background (assay medium alone); luciferase reporter, HuG-CSFR-luc (clone 40) cells, 0.8 ng/mL and 5.0 ng/mL GCSF, four hours amounted to 3 fold.

For the substance “recombinant murine interleukin-3 (from UniProt P01586 33-166) (ligand)”, in test [2], the PLAP reporter activity (4-MU fluorescence 360/460 nm), +IL-3, - filtration; 3X-RS-pGTPLAP in BaF3, 25 ng/ml rMuIL-3 came to 85; the PLAP reporter activity, +IL-3, + filtration; 3X-RS-pGTPLAP in BaF3 stood at 82; the PLAP reporter activity, +IL-3, + filtration; 6X-RS-pGTPLAP in BaF3 was found to be 177; the PLAP reporter activity, +IL-3, + filtration; 9X-RS-pGTPLAP in BaF3 came out at 257. Moreover, in test [2], the PLAP reporter activity, +IL-3, + filtration; 12X-RS-pGTPLAP in BaF3 stood at 384; the PLAP reporter activity, +IL-3, + filtration; Greater than 12X-RS-pGTPLAP in BaF3 was 389; the PLAP reporter activity, +IL-3, - filtration; 6X-RS-pGTPLAP in BaF3 is 175; the PLAP reporter activity, +IL-3, - filtration; 9X-RS-pGTPLAP in BaF3 was 276. Also, in test [2], the PLAP reporter activity, +IL-3, - filtration; 12X-RS-pGTPLAP in BaF3 was found to be 402; the PLAP reporter activity, +IL-3, - filtration; Greater than 12X-RS-pGTPLAP in BaF3 came to 384; the PLAP reporter activity, +IL-3, average - baseline; 3X-RS-pGTPLAP in BaF3 came to 70; the PLAP reporter activity, +IL-3, average - baseline; 6X-RS-pGTPLAP in BaF3 worked out at 160. For the same substance, in test [2], the PLAP reporter activity, +IL-3, average - baseline; 9X-RS-pGTPLAP in BaF3 turned out to be 250; the PLAP reporter activity, +IL-3, average - baseline; 12X-RS-pGTPLAP in BaF3 amounted to 375; the PLAP reporter activity, +IL-3, average - baseline; Greater than 12X-RS-pGTPLAP in BaF3 worked out at 370; the fold stimulation (avg +IL-3 / avg -IL-3); 3X-RS-pGTPLAP in BaF3 was found to be 3.5 fold. In test [2], this substance gave a fold stimulation (avg +IL-3 / avg -IL-3); 6X-RS-pGTPLAP in BaF3 of 5.4 fold, a fold stimulation (avg +IL-3 / avg -IL-3); 9X-RS-pGTPLAP in BaF3 of 6.2 fold, a fold stimulation (avg +IL-3 / avg -IL-3); 12X-RS-pGTPLAP in BaF3 of 8.4 fold and a fold stimulation (avg +IL-3 / avg -IL-3); Greater than 12X-RS-pGTPLAP in BaF3 of 11.2 fold.
